Here are results for one molecule from patent US20200369765A1 (INNATE PHARMA, published 2020).

Assay [1] deals with T1, Human Siglec-9 N-terminal V-set Ig-like domain (human).
T1 construct: expressed on HEK293T cells
In words: flow cytometry, HEK293T cells expressing single Siglec-9 domains. On the technique in general: In flow cytometry, cells or beads pass a laser one at a time.

Assay [2] has as its target T2, Human Siglec-9 mutant M14 (human, UniProt Q9Y336 18-463).
T2 construct: Expressed on HEK293T cells; also called Mutant 14
In words: flow cytometry, HEK293T transfectants.

For assay [3], the target named is T3, Human Siglec-9 mutant M15 (human, UniProt Q9Y336 18-463).
T3 construct: Expressed on HEK293T cells; also called Mutant 15
The assay is described as follows: flow cytometry, HEK293T transfectants.

The next assay deals with T4, Human Siglec-9 mutant M2 (human, UniProt Q9Y336 18-463).
T4 construct: Expressed on HEK293T cells; also called Mutant 2
In words: flow cytometry, HEK293T transfectants.

Another assay concerns the target T5, Human Siglec-9 mutant M3 (human, UniProt Q9Y336 18-463).
T5 construct: Expressed on HEK293T cells; also called Mutant 3
In words: flow cytometry, HEK293T transfectants.

For the next assay, the target named is T6, Human Siglec-9 mutant M6 (human, UniProt Q9Y336 18-463).
T6 construct: Expressed on HEK293T cells; also called Mutant 6
The assay is described as follows: flow cytometry, HEK293T transfectants.

The next assay concerns the target T7, Human Siglec-9 mutant M5 (human, UniProt Q9Y336 18-463).
T7 construct: Expressed on HEK293T cells; also called Mutant 5
In words: flow cytometry, HEK293T transfectants.

The target of a further assay is T8, Human Siglec-12 (human, UniProt Q96PQ1 19-595).
T8 construct: Expressed on transfected CHO cells; also called HuSiglec-12
In words: flow cytometry, CHO transfectants.

In another assay the target is T9, Human Siglec-6 (human, UniProt O43699 27-453).
T9 construct: Expressed on transfected CHO cells; also called HuSiglec-6
In words: flow cytometry, CHO transfectants.

A further assay has as its target T10, Human Siglec-5 (human, UniProt O15389 17-551).
T10 construct: Expressed on transfected CHO cells; also called HuSiglec-5
T10 sequence: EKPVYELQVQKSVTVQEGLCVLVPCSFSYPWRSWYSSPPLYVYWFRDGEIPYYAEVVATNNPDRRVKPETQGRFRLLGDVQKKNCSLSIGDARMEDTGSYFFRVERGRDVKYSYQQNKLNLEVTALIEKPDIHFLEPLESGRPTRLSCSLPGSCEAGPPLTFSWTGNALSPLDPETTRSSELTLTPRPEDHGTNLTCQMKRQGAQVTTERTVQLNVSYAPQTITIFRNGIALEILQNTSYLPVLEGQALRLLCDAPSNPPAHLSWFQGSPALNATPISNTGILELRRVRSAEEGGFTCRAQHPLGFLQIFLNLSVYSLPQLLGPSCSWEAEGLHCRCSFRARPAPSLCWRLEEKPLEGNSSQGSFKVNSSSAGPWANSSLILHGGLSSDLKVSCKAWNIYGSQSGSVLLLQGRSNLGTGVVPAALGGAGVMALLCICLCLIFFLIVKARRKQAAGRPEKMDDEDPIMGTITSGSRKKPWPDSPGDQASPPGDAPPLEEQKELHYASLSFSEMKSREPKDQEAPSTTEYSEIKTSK
In words: flow cytometry, CHO transfectants.

In the next assay the target is T11, Human Siglec-3 (human, UniProt P20138 18-364).
T11 construct: Expressed on transfected CHO cells; also called HuSiglec-3; CD33
The assay is described as follows: flow cytometry, CHO transfectants.

The target in another assay is T12, Human Siglec-8 (human, UniProt Q9NYZ4 17-499).
T12 construct: Expressed on transfected CHO cells; also called HuSiglec-8
The assay is described as follows: flow cytometry, CHO transfectants.

For a further assay, the target named is T13, Human Siglec-11 (human, UniProt Q96RL6 29-698).
T13 construct: Expressed on transfected CHO cells; also called HuSiglec-11
T13 sequence: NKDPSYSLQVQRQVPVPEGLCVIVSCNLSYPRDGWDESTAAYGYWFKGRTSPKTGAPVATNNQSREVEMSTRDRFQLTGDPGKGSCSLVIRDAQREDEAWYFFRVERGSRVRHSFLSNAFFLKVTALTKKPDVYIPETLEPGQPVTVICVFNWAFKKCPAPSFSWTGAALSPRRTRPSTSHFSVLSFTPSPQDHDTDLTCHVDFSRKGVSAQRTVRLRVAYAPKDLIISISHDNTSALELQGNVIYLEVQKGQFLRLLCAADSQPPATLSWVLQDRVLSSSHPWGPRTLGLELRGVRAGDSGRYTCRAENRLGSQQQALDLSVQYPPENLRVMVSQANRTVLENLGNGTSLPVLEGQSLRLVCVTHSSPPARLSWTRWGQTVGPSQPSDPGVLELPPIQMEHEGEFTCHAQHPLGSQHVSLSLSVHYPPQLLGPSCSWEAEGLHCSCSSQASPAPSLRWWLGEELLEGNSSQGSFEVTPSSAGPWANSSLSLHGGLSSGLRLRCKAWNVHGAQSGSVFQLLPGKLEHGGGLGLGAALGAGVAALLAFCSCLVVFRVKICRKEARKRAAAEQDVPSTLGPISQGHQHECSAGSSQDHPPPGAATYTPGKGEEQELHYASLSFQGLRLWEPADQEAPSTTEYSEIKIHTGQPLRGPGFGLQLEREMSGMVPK
The assay is described as follows: flow cytometry, CHO transfectants.

For another assay, the target named is T14, Human Siglec-10 (human, UniProt Q96LC7 17-697).
T14 construct: Expressed on transfected CHO cells; also called HuSiglec-10
T14 sequence: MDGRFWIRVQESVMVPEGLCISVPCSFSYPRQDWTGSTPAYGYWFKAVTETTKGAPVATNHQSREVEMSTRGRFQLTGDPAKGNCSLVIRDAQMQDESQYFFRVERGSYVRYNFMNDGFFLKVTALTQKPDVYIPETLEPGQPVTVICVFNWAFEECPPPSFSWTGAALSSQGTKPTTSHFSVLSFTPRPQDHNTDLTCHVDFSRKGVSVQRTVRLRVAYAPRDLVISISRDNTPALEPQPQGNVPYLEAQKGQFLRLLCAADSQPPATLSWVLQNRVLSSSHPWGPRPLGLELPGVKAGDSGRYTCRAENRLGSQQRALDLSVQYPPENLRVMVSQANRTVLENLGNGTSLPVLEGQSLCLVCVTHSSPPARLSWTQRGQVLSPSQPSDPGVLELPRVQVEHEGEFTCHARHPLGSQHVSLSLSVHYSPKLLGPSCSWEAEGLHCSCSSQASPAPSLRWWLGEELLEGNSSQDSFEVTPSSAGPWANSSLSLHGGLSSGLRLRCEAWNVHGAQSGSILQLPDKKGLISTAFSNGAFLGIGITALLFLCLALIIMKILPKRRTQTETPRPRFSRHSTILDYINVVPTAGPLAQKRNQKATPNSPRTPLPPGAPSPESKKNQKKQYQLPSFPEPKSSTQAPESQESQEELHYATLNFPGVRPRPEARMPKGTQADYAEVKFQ
In words: flow cytometry, CHO transfectants.

T3 sequence (Q9Y336 other isoform, or with tags, fused parts or gaps mutant): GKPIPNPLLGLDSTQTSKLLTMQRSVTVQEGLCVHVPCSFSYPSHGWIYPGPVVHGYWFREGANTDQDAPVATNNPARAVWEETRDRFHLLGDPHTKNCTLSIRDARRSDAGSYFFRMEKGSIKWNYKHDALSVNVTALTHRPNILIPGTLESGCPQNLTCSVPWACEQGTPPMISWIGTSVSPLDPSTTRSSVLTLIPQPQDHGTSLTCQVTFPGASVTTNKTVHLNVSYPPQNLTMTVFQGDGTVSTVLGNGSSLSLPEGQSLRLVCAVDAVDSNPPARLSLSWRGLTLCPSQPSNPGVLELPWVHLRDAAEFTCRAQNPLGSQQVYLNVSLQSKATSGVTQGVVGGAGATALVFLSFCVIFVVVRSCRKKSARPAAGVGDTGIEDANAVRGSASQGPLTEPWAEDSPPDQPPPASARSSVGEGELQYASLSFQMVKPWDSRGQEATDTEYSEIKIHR
T8 sequence (Q96PQ1 19-595): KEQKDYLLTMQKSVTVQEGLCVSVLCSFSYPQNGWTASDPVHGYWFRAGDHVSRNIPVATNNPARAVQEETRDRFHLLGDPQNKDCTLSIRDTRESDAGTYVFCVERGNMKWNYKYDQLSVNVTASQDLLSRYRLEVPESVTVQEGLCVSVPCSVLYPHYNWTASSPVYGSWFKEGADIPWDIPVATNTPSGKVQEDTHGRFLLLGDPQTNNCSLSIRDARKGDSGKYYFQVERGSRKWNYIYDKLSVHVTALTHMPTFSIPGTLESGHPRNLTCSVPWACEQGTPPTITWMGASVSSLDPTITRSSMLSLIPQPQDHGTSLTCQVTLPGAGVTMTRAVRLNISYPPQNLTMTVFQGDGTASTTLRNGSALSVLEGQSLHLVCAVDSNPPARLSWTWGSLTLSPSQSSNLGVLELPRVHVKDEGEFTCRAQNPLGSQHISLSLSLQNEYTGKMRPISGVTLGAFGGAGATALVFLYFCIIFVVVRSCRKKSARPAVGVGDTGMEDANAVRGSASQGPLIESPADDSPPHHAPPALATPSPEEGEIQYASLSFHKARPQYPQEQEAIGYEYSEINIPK
T1 sequence (chain, as listed by the source limits assumed): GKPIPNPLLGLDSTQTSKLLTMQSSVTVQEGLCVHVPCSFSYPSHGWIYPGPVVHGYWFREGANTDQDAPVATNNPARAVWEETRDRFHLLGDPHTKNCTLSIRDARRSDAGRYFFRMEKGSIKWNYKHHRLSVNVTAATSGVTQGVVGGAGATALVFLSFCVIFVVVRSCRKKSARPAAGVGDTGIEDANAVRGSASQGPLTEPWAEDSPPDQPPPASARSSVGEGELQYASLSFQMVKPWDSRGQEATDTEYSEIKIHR
T5 sequence (Q9Y336 other isoform, or with tags, fused parts or gaps mutant): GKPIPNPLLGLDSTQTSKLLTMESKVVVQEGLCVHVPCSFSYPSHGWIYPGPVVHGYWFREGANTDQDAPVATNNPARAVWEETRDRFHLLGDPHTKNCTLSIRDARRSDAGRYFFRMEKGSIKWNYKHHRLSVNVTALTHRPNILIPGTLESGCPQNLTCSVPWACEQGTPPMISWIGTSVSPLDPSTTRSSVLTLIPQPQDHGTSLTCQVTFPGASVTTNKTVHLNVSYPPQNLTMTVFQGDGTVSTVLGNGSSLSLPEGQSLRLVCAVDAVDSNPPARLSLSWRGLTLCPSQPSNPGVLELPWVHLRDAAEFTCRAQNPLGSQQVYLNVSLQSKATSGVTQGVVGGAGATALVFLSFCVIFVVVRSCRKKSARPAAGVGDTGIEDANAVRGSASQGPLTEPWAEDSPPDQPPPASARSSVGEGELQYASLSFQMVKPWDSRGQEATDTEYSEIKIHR
T12 sequence (Q9NYZ4 17-499): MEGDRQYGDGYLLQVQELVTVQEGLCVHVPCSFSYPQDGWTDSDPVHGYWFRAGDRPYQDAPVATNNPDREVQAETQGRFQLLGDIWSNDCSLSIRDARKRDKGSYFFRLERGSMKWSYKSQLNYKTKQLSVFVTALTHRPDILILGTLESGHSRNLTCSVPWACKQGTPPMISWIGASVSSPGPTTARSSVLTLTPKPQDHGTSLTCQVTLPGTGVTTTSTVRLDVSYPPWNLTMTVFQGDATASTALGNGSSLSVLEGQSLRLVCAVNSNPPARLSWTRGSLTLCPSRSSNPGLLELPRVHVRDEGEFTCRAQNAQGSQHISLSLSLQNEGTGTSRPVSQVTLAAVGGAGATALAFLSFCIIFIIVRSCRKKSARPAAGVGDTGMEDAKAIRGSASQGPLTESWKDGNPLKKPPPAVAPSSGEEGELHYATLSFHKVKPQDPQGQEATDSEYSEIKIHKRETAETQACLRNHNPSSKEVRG
T7 sequence (Q9Y336 other isoform, or with tags, fused parts or gaps mutant): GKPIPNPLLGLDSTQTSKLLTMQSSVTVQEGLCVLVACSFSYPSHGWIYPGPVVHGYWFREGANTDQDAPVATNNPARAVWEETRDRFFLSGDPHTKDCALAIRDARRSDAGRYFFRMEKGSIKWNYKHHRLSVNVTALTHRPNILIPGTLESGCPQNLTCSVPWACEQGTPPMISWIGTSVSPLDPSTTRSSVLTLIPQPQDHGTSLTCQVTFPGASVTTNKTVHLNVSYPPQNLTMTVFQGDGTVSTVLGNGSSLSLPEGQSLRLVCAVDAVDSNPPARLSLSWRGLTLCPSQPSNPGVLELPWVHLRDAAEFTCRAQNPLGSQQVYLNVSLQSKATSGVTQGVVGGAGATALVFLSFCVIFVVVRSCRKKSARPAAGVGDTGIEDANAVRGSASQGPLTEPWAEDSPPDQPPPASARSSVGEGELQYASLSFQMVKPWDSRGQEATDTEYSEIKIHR
T6 sequence (Q9Y336 other isoform, or with tags, fused parts or gaps mutant): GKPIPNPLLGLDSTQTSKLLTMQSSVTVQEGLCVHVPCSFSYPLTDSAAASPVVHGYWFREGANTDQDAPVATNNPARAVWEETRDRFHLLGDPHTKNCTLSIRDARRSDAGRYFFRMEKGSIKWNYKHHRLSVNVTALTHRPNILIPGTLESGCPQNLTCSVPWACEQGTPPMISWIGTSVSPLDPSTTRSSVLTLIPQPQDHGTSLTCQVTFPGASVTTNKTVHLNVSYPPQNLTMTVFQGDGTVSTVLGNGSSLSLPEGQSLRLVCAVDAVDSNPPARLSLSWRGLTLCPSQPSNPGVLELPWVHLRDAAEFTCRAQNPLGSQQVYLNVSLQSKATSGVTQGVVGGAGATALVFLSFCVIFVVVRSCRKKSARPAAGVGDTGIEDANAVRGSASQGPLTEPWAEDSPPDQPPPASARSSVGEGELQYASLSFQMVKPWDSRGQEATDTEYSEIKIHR
T9 sequence (O43699 other isoform, or with tags, fused parts or gaps): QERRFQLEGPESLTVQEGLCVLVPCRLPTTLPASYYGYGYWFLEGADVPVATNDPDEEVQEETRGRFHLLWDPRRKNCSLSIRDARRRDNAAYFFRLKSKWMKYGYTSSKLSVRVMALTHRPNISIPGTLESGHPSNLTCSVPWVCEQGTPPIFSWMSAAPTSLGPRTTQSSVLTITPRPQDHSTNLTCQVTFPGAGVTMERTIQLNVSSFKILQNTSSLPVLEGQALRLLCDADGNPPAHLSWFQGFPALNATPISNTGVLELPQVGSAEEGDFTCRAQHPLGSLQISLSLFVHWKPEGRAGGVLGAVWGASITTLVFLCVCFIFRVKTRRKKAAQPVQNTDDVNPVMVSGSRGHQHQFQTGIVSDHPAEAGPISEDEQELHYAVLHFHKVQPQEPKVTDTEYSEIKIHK
T11 sequence (P20138 18-364 R69G): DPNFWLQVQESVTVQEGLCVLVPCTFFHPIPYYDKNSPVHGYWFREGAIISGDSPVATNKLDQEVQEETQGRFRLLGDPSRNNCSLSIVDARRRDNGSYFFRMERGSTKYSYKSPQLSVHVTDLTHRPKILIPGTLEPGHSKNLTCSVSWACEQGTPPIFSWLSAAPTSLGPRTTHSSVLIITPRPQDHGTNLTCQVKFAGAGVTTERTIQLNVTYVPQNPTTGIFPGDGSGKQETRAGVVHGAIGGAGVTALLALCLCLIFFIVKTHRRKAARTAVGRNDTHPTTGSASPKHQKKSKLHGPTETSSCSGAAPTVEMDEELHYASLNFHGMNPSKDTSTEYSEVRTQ
T4 sequence (Q9Y336 other isoform, or with tags, fused parts or gaps mutant): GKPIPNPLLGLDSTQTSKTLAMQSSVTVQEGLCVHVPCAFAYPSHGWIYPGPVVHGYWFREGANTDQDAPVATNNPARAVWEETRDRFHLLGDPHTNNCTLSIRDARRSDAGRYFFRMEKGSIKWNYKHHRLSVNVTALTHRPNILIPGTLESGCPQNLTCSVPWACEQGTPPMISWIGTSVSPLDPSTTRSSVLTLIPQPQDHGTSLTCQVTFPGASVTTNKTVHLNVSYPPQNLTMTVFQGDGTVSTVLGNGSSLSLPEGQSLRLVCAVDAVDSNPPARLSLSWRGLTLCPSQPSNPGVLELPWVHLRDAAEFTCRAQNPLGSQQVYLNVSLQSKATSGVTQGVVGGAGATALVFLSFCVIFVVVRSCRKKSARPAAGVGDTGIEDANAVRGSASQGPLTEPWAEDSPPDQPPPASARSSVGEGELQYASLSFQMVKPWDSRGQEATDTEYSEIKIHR
T2 sequence (Q9Y336 other isoform, or with tags, fused parts or gaps mutant): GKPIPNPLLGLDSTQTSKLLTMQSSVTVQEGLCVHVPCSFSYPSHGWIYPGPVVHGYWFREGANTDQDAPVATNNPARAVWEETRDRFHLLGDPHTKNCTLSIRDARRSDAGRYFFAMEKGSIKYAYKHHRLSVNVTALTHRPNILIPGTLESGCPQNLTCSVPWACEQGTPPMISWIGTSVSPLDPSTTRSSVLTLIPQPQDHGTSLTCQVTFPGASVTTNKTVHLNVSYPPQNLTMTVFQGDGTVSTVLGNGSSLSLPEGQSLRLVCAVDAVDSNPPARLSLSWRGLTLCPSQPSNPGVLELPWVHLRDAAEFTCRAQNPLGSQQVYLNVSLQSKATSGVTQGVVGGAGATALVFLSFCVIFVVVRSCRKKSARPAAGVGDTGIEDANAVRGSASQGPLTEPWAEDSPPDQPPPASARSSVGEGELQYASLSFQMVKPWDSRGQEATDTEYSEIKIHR

B1: mAbF (antibody, human IgG1, V domains shown)
VH: QVQLQQSGPEVVRPGVSVKISCKGSGYTFTDYSMHWVKQSHAKSLEWIGVISTYNGNTNYNQKFKGKATMTVDKSSSTAYMELARLTSEDSAIYYCARRGYYGSSSWFGYWGQGTLVTVSA
VL: DIVMTQSQKFMSTSVGDRVSVTCKASQNVGTDVAWYQQKPGQSPEALIYSASYRYSGVPDRFTGSGSGADFTLTISNVQSEDLAEYFCQQYNSFPYTFGGGTKLEIK
For B1, the binding result (in [1]; in assay [2]; in assay [3]; in the assay with Human Siglec-9 mutant M2; with Human Siglec-9 mutant M3; with Human Siglec-9 mutant M6) was “binds” in each case. Further, the binding result in the assay with Human Siglec-9 mutant M5 is given as “binds”; with Human Siglec-12, “no binding”; with Human Siglec-6, “no binding”; with Human Siglec-5, “no binding”; with Human Siglec-3 it was “no binding”; with Human Siglec-8, “no binding”. The binding result with Human Siglec-11 and in the assay with Human Siglec-10 was “no binding” each time.
